Reference: publication PMC6856128 (Scientific Reports, 2019)

Tested on: O=S(O)(O)=S
Test: purified protein
Settings: pH 8.0; 37.0 °C

For “CysA2 (Mycobacterium tuberculosis H37Rv)”, the Km was 2970 ± 50 µM.
